According to US20090123934A1 (published 2009):
Residue numbers refer to the chain shown, from its start.

What was measured:
[1] = molecular target: wildtype PoloBD-fusion protein (Drosophila melanogaster) (UniProt P52304); assay: yeast two-hybrid, serial dilutions
HA-Polo = molecular target: T1, HA-Polo (Drosophila melanogaster, UniProt P52304 1-576); assay: purified Flag-Mtrm incubated with HA-Polo, immunoprecipitated with anti-Mtrm antibody, anti-HA Western blot (FIG. 18)
T1 construct: Expressed with baculovirus in Sf9 cells; also called Polo with a 2XHA tag at the N-terminus; not shown: N-terminal 2XHA tag
T1 sequence (looked up): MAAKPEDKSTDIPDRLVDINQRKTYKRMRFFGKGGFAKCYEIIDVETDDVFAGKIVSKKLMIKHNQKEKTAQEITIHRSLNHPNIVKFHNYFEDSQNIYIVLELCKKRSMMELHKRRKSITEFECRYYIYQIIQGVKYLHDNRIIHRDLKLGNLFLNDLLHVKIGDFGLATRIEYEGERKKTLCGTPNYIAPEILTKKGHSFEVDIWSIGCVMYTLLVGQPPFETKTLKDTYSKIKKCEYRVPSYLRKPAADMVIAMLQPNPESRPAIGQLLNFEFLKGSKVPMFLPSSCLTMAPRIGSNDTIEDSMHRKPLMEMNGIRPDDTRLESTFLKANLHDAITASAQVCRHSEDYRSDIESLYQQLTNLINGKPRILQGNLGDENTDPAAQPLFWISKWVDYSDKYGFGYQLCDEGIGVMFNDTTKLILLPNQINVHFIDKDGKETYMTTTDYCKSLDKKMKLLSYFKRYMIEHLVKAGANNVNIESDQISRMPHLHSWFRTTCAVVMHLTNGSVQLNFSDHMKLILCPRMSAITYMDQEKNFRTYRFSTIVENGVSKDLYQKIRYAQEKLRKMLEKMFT
Protocol: Protein from affinity-purified Flag-Mtrm and HA-Polo was used for an in vitro binding experiment. 50 μg Flag-Mtrm was mixed with the same amount of HA-Polo in 60 μl of the above buffer and incubated for 1 hr at 30° C. As a control, 50 μg HA-Polo in 60 μl was also incubated. After incubation, both protein samples were immunoprecipitated using 50 μl protein A agarose beads coated with anti-Mtrm antibody (from guinea pig) for 1 hr at 4° C. The agarose beads were washed 6 times with the above protein buffer.
For Western blotting, the beads were suspended in 40 μl of SDS loading buffer (50 mM Tris-HCl (pH 6.8), 100 mM DTT, 2% SDS, 0.1% bromophenol blue, 10% glycerol) and heated for 3 min at 95° C. before being loaded on a PAGE gel. Western blotting for HA-Polo was conducted using anti-HA antibody from mouse and an Alkaline Phosphatase chromogen kit (BCIP/NBT) (Roche). (FIG. 18).

Polo kinase (Polo) [2] = molecular target: T2, Polo kinase (Polo) (Drosophila melanogaster, UniProt P52304 1-576, T182 detected as phosphorylated (over 80%) in Polo bound to Mtrm); assay: anti-FLAG affinity purification from ovarian extracts, MudPIT mass spectrometry, three replicates
T2 construct: Endogenous Polo in ovary extracts; also called polo (FBgn0003124)
T2 sequence (looked up): T1 sequence (looked up)
Excerpt: We analyzed three independent affinity purifications from ovarian extracts expressing a C-terminally 3×FLAG-tagged Mtrm and used MudPIT mass spectrometry to identify interacting proteins. We then compared the identified proteins to those detected in five control FLAG immuno-precipitations from control (w¹¹¹⁸) flies.
In order to prepare a C-terminally 3×FLAG-tagged Mtrm for the MudPIT mass spectrometry assay, the UASP-mtrm-Flag (3×) construct was expressed in ovaries under the control of the nanos-GAL4 driver in a wild-type background. The extraction of protein from the ovaries was the same as described above. 100 μl of anti-FLAG beads were washed 2 times with pre-chilled 1×PBS and then 2 times with pre-chilled ovary extract buffer. The anti-FLAG beads were mixed with the extract supernatant, incubated and washed as described above. After washing, the beads bound with Mtrm-FLAG (3×) were finally transferred to a mini-column and washed with 25 ml of TBS (50 mM Tris-HCl, pH 7.4, 150 mM NaCl) at 4° C. When washing was completed, 300 μl TBS with 100 μg/ml 3×FLAG peptide was added to elute proteins. TCA was added to the eluted protein solution at a final concentration of 20%. The solution was mixed and kept on ice for at least 30 minutes. The solution was centrifuged at 14000 rpm at 4° C. for 15 minutes. […] The pellet was air dried and ready for the Mud PIT spectrometry analysis.

Polo kinase (Polo) [3] = molecular target: T2, Polo kinase (Polo); assay: co-immunoprecipitation, ovary extracts
Protocol: To prepare the ovary extract for immunoprecipitation, ovaries from 100 yeast-fed female flies were dissected in 1×PBS. The ovaries were homogenized in an Eppendorf tube at 4° C. by a small pestle in 0.5 ml of ovary extract buffer containing 25 mM Hepes (pH 6.8), 50 mM KCl, 1 mM MgCl₂, 1 mM DTT and 125 mM sucrose with protease inhibitors cocktail (Calbiochem). The extract was centrifuged at 14000×g for 15 minutes at 4° C. and the supernatant was collected.
Protein A agarose beads were used for binding polyclonal antibodies from rabbit and guinea pig. Protein G agarose beads were used for binding monoclonal antibody from mouse. 50 ul of protein A or G-coated agarose was washed three times with PBST (PBS+0.1% Triton X-100). 10 ul of antibody was added to the beads in a final volume of 500 ul of PBS and mixed on a shaker for 1 hour at 4° C. The beads then were washed twice with PBST. The ovary extract was immunoprecipitated with the beads for 1 hour at 4° C. with continual shaking. After recovery by centrifugation at 1000×g for 3 minutes, the beads were washed 4 times with the cold ovary extract buffer with protease inhibitors, for 5 minutes each. For Western blotting, the beads were suspended in 30 μl of SDS loading buffer (50 mM Tris-HCl (pH 6.8), 100 mM DTT, 2% SDS, 0.1% bromophenol blue, 10% glycerol) and heated for 3 minutes at 95° C. before being loaded on a PAGE gel. […]

MtrmT(40)A mutant MtrmAD-fusion protein (from UniProt Q23973 1-217)
colonies at the third serial dilution [1]: 1 colonies | colonies following the first serial dilution [1]: 7 colonies

B1: Flag-Mtrm (other)
chain: MENSRTPTNKTKITLNRTPTLKERRWNTLKVNTSNVRCSTPIFGNFRSPNLSPIENMGTKGKSPVSPMRFATFKKVPTKVHPKQQQQQQHQHCHRTQLKPPPFVLPKPQEEIIEPEREIKSCSSPDTCSDDSNMETSLALESRRRSIKASNHSYVVNHAANVEQILMHMGLENYVTNFEEAHIDLVELASLERADLVKIGLNTDEDCNRIMDVLHTL
notes: Expressed with baculovirus in Sf9 cells; also called Mtrm with a Flag tag at the N-terminus; not shown: N-terminal Flag tag
binding result (HA-Polo): binds

B2: C-terminally 3×FLAG-tagged Mtrm (other)
chain: B1 chain
modifications: phosphorylation detected on T40, S124 (less reproducibly), S48, S52 and S137
notes: Expressed in ovaries under nanos-GAL4 in a wild-type background; purified on anti-FLAG beads for MudPIT; also called Mtrm-Flag(3×); Mtrm-FLAG (3×); not shown: C-terminal 3×FLAG tag
ratio between the two proteins (NSAF) (Polo kinase (Polo) [2]): 0.96 ratio of NSAF values

B3: Mtrm with both PBD binding sites mutated (T(40)A and S(124)A) (other)
chain: B1 chain with T40A, S124A
binding result (Polo kinase (Polo) [3]): no binding
